Laboratory results reported in US20230365711A1 (Hoffmann-La Roche, published 2023).
Where two headings read alike, the source gives them in different places.

T1: human carcinoembryonic antigen (CEA), membrane-bound on cells (human, UniProt P06731 35-685)
T1 construct: whole, on cells; also called CEACAM-5; CD66e
T1 sequence (looked up): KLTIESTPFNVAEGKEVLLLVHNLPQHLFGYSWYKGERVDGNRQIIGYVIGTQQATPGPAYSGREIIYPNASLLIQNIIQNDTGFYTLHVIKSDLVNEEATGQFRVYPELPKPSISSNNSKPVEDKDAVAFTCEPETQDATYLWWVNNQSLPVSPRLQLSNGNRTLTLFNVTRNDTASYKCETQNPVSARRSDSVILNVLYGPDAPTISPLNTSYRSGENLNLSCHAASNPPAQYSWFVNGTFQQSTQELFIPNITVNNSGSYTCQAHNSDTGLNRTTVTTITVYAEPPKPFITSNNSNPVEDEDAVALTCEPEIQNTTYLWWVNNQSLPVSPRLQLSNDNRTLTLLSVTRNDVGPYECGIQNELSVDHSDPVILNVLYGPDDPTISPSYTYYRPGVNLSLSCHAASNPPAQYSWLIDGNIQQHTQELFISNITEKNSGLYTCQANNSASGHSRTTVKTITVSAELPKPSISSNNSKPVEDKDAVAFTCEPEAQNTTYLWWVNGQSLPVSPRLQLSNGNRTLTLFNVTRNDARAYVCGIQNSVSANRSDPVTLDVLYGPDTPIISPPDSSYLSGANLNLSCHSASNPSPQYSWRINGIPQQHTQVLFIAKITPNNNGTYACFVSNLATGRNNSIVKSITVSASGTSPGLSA

T2: huNABA-avi-his (hybrid protein N-A1-B3-A2: N and A1 domains of human BGP, B3 domain of human CEA, A2 domain … (human, biotinylated at the avi tag (in vivo, co-transfected biotin ligase)))
T2 construct: also called NABA-avi-his reagent; biotinylated NABA
T2 chain: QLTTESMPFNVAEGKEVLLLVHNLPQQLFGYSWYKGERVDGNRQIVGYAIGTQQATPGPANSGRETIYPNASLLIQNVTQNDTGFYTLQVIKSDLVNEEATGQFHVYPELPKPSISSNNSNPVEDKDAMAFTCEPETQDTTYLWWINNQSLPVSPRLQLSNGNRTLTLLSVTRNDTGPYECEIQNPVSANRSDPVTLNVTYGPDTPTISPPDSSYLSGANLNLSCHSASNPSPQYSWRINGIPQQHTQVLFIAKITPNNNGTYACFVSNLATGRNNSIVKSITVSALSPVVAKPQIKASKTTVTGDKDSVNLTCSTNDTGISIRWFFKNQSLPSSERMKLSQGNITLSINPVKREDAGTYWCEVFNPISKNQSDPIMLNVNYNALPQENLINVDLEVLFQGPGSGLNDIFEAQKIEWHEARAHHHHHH


Legend:
[1] = molecular target: T1, human carcinoembryonic antigen (CEA), …; assay: FACS on MKN45 cells
[2] = molecular target: T2, huNABA-avi-his (hybrid protein …); assay: Proteon SPR, antibody analyte on biotinylated NABA (Neutravidin chip)
[3] = molecular target: T2, huNABA-avi-his (hybrid protein …); assay: Proteon SPR, antibody analyte on biotinylated NABA (Neutravidin chip); column Ka (M)
[4] = molecular target: T2, huNABA-avi-his (hybrid protein …); assay: Proteon SPR, antibody analyte on biotinylated NABA (Neutravidin chip)
Description: (§1) Proteon (Biacore) sensorgrams were obtained for the binding of the combined framework and CDR-H3 variants to the CEA antigen-harbouring chimeric protein NABA. […] The precursor clone 5L1A10 and the parental antibody CH7A were included for direct comparison. All antibodies tested in this assay had 2F1 as the light chain FIG. 25.

[5] = molecular target: T2, huNABA-avi-his (hybrid protein …); assay: Proteon SPR, antibody analyte on biotinylated NABA (Neutravidin chip); column Ka (M)
Description: as §1

[6] = molecular target: T1, human carcinoembryonic antigen (CEA), …; assay: flow cytometry on MKN45 cells, IgG1/kappa
Method: An affinity matured heavy chain variable region construct, CH7A rF9, and an affinity matured light chain variable region construct, CL1A rH11, were paired with the parent light chain variable region construct and the heavy chain variable region construct, respectively, and with each other. All antibodies were converted into human IgG1/kappa and binding to the CEA-positive cell-line MKN45 was measured by flow cytometry. […] The matured light chain shifts the EC50 values to lower numbers, whereas the matured heavy chains (rF9 in FIG. 6, and rB9 in FIG. 15) shift the total fluorescence signal intensity in a flow-cytometry measurement. […] The combination of these two chains increases the affinity even further.

[7] = molecular target: T2, huNABA-avi-his (hybrid protein …); assay: Proteon SPR, antibody analyte on biotinylated NABA (Neutravidin chip)
Description: (§2) Shown in FIG. 22 are Proteon (Biacore) sensorgrams obtained for the binding of the CDR-H3 antibody variants to the CEA antigen-harbouring chimeric protein NABA. […] The affinity matured precursor clone 5HFF12 and the parental antibody CH7A were included for direct comparison. All antibodies tested in this assay had 2F1 as the light chain. […] The relative affinity of each, measured in the bivalent form, is as follows: 5HFF12>CH7A (Y98A/D99Y)>CH7A (Y98A)>CH7A>CH7A (E102Q)>CH7A (D99Y)>CH7A (D99H)>CH7A (A103T)>CH7A (V101F)>CH7A (W95Y).

[8] = molecular target: T2, huNABA-avi-his (hybrid protein …); assay: Proteon SPR, antibody analyte on biotinylated NABA (Neutravidin chip); column Ka (M)
Description: as §2

EC50 (read off the curve) [1]	Kd [2]	kon [3]	Binder	also measured
~1 µg/mL	4.24 nM	81900 M⁻¹ s⁻¹	anti-CEA antibody with heavy chain CH1A1 and light chain 2F1 (antibody, V domains shown, CH1A with M69F/T71L double point mutation; also called precursor clone CH1A1) VH: QVQLVQSGAEVKKPGASVKVSCKASGYTFTEFGMNWVRQAPGQGLEWMGWINTKTGEATYVEEFKGRVTFTLDTSTSTAYMELRSLRSDDTAVYYCARWDFYDYVEAMDYWGQGTTVTVSS VL: DIQMTQSPSSLSASVGDRVTITCKASAAVGTYVAWYQQKPGKAPKLLIYSASYRKRGVPSRFSGSGSGTDFTLTISSLQPEDFATYYCHQYYTYPLFTFGQGTKLEIKR	–
–	–	–	CH1A1A (Y98A/D99Y) 2F1 (antibody, V domains shown, also called CH1A1A (98/99); CH1A1A (Y98A/D99Y)x2F1) VH: QVQLVQSGAEVKKPGASVKVSCKASGYTFTEFGMNWVRQAPGQGLEWMGWINTKTGEATYVEEFKGRVTFTTDTSTSTAYMELRSLRSDDTAVYYCARWDFAYYVEAMDYWGQGTTVTVSS VL: DIQMTQSPSSLSASVGDRVTITCKASAAVGTYVAWYQQKPGKAPKLLIYSASYRKRGVPSRFSGSGSGTDFTLTISSLQPEDFATYYCHQYYTYPLFTFGQGTKLEIKR	Kd [4]: 0.537 nM; kon [5]: 628000 M⁻¹ s⁻¹
~1 µg/mL	13 nM	44900 M⁻¹ s⁻¹	anti-CEA antibody with heavy chain CH1A1C and light chain 2F1 (antibody, V domains shown) VH: QVQLVQSGPELKKPGASVKVSCKASGYTFTEFGMNWVRQAPGQGLEWMGWINTKTGEATYVEEFKGRVTMTTDTSTSTAYMELRSLRSDDTAVYYCARWDFYDYVEAMDYWGQGTTVTVSS VL: DIQMTQSPSSLSASVGDRVTITCKASAAVGTYVAWYQQKPGKAPKLLIYSASYRKRGVPSRFSGSGSGTDFTLTISSLQPEDFATYYCHQYYTYPLFTFGQGTKLEIKR	–
~1 µg/mL	7.58 nM	70800 M⁻¹ s⁻¹	anti-CEA antibody with heavy chain CH1A1F and light chain 2F1 (antibody, V domains shown) VH: QVQLVQSGAEVKKPGASVKVSCKASGYTFTEFGMNWVRQAPGQGLEWMGWINTKTGEATYVEEFKGRVTMTTDTSTSTAYLELRSLRSDDTAVYYCARWDFYDYVEAMDYWGQGTTVTVSS VL: DIQMTQSPSSLSASVGDRVTITCKASAAVGTYVAWYQQKPGKAPKLLIYSASYRKRGVPSRFSGSGSGTDFTLTISSLQPEDFATYYCHQYYTYPLFTFGQGTKLEIKR	–
~1 µg/mL	5.91 nM	81800 M⁻¹ s⁻¹	anti-CEA antibody with heavy chain CH1A1A and light chain 2F1 (antibody, V domains shown) VH: QVQLVQSGAEVKKPGASVKVSCKASGYTFTEFGMNWVRQAPGQGLEWMGWINTKTGEATYVEEFKGRVTFTTDTSTSTAYMELRSLRSDDTAVYYCARWDFYDYVEAMDYWGQGTTVTVSS VL: DIQMTQSPSSLSASVGDRVTITCKASAAVGTYVAWYQQKPGKAPKLLIYSASYRKRGVPSRFSGSGSGTDFTLTISSLQPEDFATYYCHQYYTYPLFTFGQGTKLEIKR	–
–	–	–	CH1A1B (Y98A/D99Y) 2F1 (antibody, V domains shown) VH: QVKLQQSGAEVKKPGASVKVSCKASGYTFTEFGMNWVRQAPGQGLEWMGWINTKTGEATYVEEFKGRVTMTTDTSTSTAYMELRSLRSDDTAVYYCARWDFAYYVEAMDYWGQGTTVTVSS VL: DIQMTQSPSSLSASVGDRVTITCKASAAVGTYVAWYQQKPGKAPKLLIYSASYRKRGVPSRFSGSGSGTDFTLTISSLQPEDFATYYCHQYYTYPLFTFGQGTKLEIKR	Kd [4]: 0.507 nM; kon [5]: 711000 M⁻¹ s⁻¹
~1 µg/mL	8.9 nM	53700 M⁻¹ s⁻¹	anti-CEA antibody with heavy chain CH1A1B and light chain 2F1 (antibody, V domains shown) VH: QVKLQQSGAEVKKPGASVKVSCKASGYTFTEFGMNWVRQAPGQGLEWMGWINTKTGEATYVEEFKGRVTMTTDTSTSTAYMELRSLRSDDTAVYYCARWDFYDYVEAMDYWGQGTTVTVSS VL: DIQMTQSPSSLSASVGDRVTITCKASAAVGTYVAWYQQKPGKAPKLLIYSASYRKRGVPSRFSGSGSGTDFTLTISSLQPEDFATYYCHQYYTYPLFTFGQGTKLEIKR	–
~1 µg/mL	9.28 nM	53100 M⁻¹ s⁻¹	anti-CEA antibody with heavy chain CH1A1D and light chain 2F1 (antibody, V domains shown) VH: QVQLVQSGAEVKKPGETVKISCKASGYTFTEFGMNWVRQAPGQGLEWMGWINTKTGEATYVEEFKGRVTMTTDTSTSTAYMELRSLRSDDTAVYYCARWDFYDYVEAMDYWGQGTTVTVSS VL: DIQMTQSPSSLSASVGDRVTITCKASAAVGTYVAWYQQKPGKAPKLLIYSASYRKRGVPSRFSGSGSGTDFTLTISSLQPEDFATYYCHQYYTYPLFTFGQGTKLEIKR	–
–	–	–	antibody with affinity matured heavy chain variable region CH7A rF9 and affinity matured light chain variable region CL1A rH11 (antibody, V domains shown, The suffix G2(1) is not explained; also called CH7ArF9 CL1A rH11; CH7Arf9, CL1A rH11G2(1)) VH: QVQLVQSGSELKKPGASVKVSCKASGYTFTEYGMNWVRQAPGQGLEWMGWINTKSGEATYVEEFKGRFVFSLDTSVSTAYLQISSLKAEDTAVYYCARWDFYDYVEAMDYWGQGTTVTVSS VL: DIQMTQSPSSLSASVGDRVTITCKASQTVSANVAWYQQKPGKAPKLLIYLASYRYRGVPSRFSGSGSGTDFTLTISSLQPEDFATYYCHQYYTYPLFTFGQGTKLEIK	EC50 (read off the curve) [6]: ~0.5 µg/mL
–	–	–	antibody with heavy chain CH7A (Y98A/D99Y) and light chain 2F1 (antibody, V domains shown, Bivalent form; also called double mutant (Y98A/D99Y)) VH: QVQLVQSGSELKKPGASVKVSCKASGYTFTEFGMNWVRQAPGQGLEWMGWINTKTGEATYVEEFKGRFVFSLDTSVSTAYLQISSLKAEDTAVYYCARWDFAYYVEAMDYWGQGTTVTVSS VL: DIQMTQSPSSLSASVGDRVTITCKASAAVGTYVAWYQQKPGKAPKLLIYSASYRKRGVPSRFSGSGSGTDFTLTISSLQPEDFATYYCHQYYTYPLFTFGQGTKLEIKR	Kd [7]: 0.186 nM; Kd [4]: 0.465 nM; kon [8]: 236000 M⁻¹ s⁻¹; kon [5]: 481000 M⁻¹ s⁻¹
–	–	–	antibody with affinity matured heavy chain variable region CH7A rF9 and parent light chain variable region CL1A (antibody, human IgG1, V domains shown, also called CH7A rF9, CL1A) VH: QVQLVQSGSELKKPGASVKVSCKASGYTFTEYGMNWVRQAPGQGLEWMGWINTKSGEATYVEEFKGRFVFSLDTSVSTAYLQISSLKAEDTAVYYCARWDFYDYVEAMDYWGQGTTVTVSS VL: DIQMTQSPSSLSASVGDRVTITCKASQNVGTNVAWYQQKPGKAPKLLIYSASYRYSGVPSRFSGSGSGTDFTLTISSLQPEDFATYYCHQYYTYPLFTFGQGTKLEIK	EC50 (read off the curve) [6]: ~0.7 µg/mL
